Test results: paper PMC6461089, “Characterization of the phosphotransacetylase-acetate kinase pathway for ATP production in Porphyromonas gingivalis” (Journal of Oral Microbiology, 2019)

How the values were obtained:
Assay type in all cases: biochemical, Porphyromonas gingivalis
[1] = substrate: CC(=O)OP(=O)(O)O; assay: ATP formation coupled to hexokinase / glucose-6-phosphate dehydrogenase (NADPH, A340), secondary plots; details: co-substrate ADP (0.267-2.67 mM, extrapolated), 50 mM Tris/HCl pH 8.0, 1.3 mM MgCl2 (methods also mention MnCl2), 37°C
From the text: (§1) ATP formation coupled to hexokinase / glucose-6-phosphate dehydrogenase (NADPH, A340), secondary plots on PgAck (PGN_1178)

[2] = substrate: Nc1ncnc2c1ncn2[C@@H]1O[C@H](COP(=O)(O)OP(=O)(O)O)[C@@H](O)[C@H]1O; assay: as above; details: co-substrate AcP (0.0667-0.667 mM, extrapolated), 50 mM Tris/HCl pH 8.0, 1.3 mM MgCl2 (methods also mention MnCl2), 37°C
From the text: as §1

[3] = substrate: CC(=O)SCCNC(=O)CCNC(=O)[C@H](O)C(C)(C)COP(=O)(O)OP(=O)(O)OC[C@H]1O[C@@H](n2cnc3c(N)ncnc32)[C@H](O)[C@@H]1OP(=O)(O)O; assay: acetyl-CoA consumption at A233, Michaelis-Menten fit; details: 100 mM Tris/phosphate pH 9.0 (phosphate co-substrate), 20 mM KCl, 37°C, acetyl-CoA 50-200 µM
From the text: acetyl-CoA consumption at A233, Michaelis-Menten fit on PgPta (PGN_1179)

Row | Protein | Km [1] [µM] | Vmax [1] [µmol/min/mg] | kcat [1] [s⁻¹] | Km [2] [µM] | Vmax [2] [µmol/min/mg] | kcat [2] [s⁻¹] | Km [3] [µM] | Vmax [3] [µmol/min/mg] | kcat [3] [s⁻¹]
1 | PgAck (PGN_1178) (Porphyromonas gingivalis ATCC 33277) (protein, full length (398 residues), E. coli BL21(DE3), pET28a, N-terminal His6 tag cut off by thrombin; homodimer (108 kDa by gel filtration); EC 2.7.2.1) MKVLVLNCGSSSVKYKLLEMPKGDVLAQGGVEKLGLPGSFLKLTMPNGEKVVLEKDMPEHTIAVEFILSVLKDDKYGCIKSYEEIDAVGHRLVHGGEKFSNSVEITPEVIAKVEECIPLAPLHNPANLKGVVAIEKLLPGIRQVGVFDTAFFQTMPEHVYRYALPYDMCNKHGVRRYGFHGTSHRYVSARACEILGLDYDKTRIITAHIGNGASIAAIKNGKALDVSLGMTPVEGLMMGTRSGDVDPGVLTFLMEAEGLQAAGISELINKKSGVLGVSGVSSDLREIEDAIKNGNERATLAMTMYDYRIKKYVGAYAAAMGGVDVLVFTGGVGENQYTTREKVCTDMEFMGIVFDSKVNEGMRGKEMVISKPESKVTVIVVPTDEEYMIASDTMTILK | 22.2 ± 0.2 | 145 | 105 ± 1 | 188 ± 22 | 145 | 105 ± 1 | – | – | –
2 | PgPta (PGN_1179) (Porphyromonas gingivalis ATCC 33277) (protein, full length (domains span residues 1-336), E. coli BL21(DE3), pGEX-6P-1, GST tag cut off by PreScission protease; EC 2.3.1.8) MDLIQDVIRRAQENKQRIVLPEGLEPRTLEAADRLMADKVVNIILIGNVDSVKAKVAELGLKNLDEAVIIDPNNHPKKQQYTDLLLQIRQKKGLTPEKAAELVENPLYLGCLIVKSGDADGLIAGAQNTTGDVLRPALQVIKTAPGMTSVSGTFLLFTKAKEYGKDGLLLVADCAVIPNPTADELAQIAVATARTAKAIADIEPRVAMLSFSTKGSAKHEMTDKVVEATRMAQEMAPDLLIDGEMQADAALVERVAALKAPGSNVAGKANVLVFPTLEVGNIAYKLVERLGHAEAVGPILQGMAAPVNDLSRGCSVEDIYRMVAITANQAIAAKEQ | – | – | – | – | – | – | 63.8 ± 7.5 | 2470 ± 105 | 1490 ± 63
